{
  "source": "patent KR20140138533A",
  "about": "(dated 2014)",
  "target": "T1, 재조합 인슐린 유사 성장인자-1 수용체 (IGF-1R, R&D system, 391-GR), extracellular domain Met1-Asn932 (human, UniProt P08069 31-932)",
  "T1 construct": "range 1-932; Bought recombinant protein; also called 재조합 IGF-1R; hIGF-1R",
  "T1 sequence (P08069 31-932 limits assumed)": "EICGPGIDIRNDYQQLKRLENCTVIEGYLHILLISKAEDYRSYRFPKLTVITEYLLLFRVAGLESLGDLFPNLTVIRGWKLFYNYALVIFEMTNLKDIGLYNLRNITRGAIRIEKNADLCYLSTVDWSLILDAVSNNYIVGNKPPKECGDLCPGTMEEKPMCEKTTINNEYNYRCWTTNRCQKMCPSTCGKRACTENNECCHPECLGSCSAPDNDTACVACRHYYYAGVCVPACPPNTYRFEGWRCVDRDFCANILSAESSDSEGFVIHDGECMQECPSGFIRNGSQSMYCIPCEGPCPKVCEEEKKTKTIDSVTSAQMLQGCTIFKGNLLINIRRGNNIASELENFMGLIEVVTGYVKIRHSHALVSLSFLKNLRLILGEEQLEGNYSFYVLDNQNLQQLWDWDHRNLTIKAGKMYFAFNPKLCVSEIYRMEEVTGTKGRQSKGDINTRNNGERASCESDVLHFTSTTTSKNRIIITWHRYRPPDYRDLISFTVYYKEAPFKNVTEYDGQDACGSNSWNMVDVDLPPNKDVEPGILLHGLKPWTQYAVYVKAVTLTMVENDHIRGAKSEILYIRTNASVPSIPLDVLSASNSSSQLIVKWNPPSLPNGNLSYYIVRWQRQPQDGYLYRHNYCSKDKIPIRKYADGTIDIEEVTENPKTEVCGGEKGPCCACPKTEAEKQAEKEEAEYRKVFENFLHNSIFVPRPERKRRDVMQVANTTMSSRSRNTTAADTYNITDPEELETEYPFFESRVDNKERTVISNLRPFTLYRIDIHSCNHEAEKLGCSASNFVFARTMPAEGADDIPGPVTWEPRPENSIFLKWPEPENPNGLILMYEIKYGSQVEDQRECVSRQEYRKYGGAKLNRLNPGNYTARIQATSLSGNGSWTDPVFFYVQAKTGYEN",
  "assay": "SPR (BiaCore T200), MKJP2 captured on anti-human IgG Fc CM5 chip, IGF-1R injected at 0.78-12.5 nM",
  "data": [
    {"binder": "인간 단일클론항체 MKJP2 (전체 IgG) (antibody, V domains shown, Variable regions were cloned into the vectors E-A12H-ID (heavy) and pEA12L-ID (light); also called MKJP2 항체; 항 IGF-1R 항체 MKJP2) VH: EVQLLESGGGLAQPGGSLRLSCAASGFTFSGYAMSWVRQAPGKGLEWVSAISSDGGSTYYADSVKGRFTISRDNSKNTLYLQMNSLRAEDTAVYYCARDPWFSRWTAFDYWGQGTLVTVSS VL: QSVLTQPPSASGTPGQRVTISCSGSSSNIGNNAVNWYQQLPGTAPKLLIYSNSKRPSGVPDRFSGSKSGTSASLAISGLRSEDEADYYCGTWDYSLSGYVFGGGTKLTVLG", "values": [
      {"measurement": "Kd", "result": 0.173, "unit": "nM"}
    ]}
  ]
}
